# Measurements: article PMC11825094, “Tonic ubiquitination of the central body weight regulator melanocortin receptor 4 (MC4R) promotes its constitutive exit from cilia” (PLOS Biology, 2025)
# B1: melanocortin receptor accessory protein 2 (MRAP2)-3xFLAG, murine (natural protein, mouse, UniProt D3Z1Q2 3-207, looked up)
# chain: MSAQRLASNRTSPQSPSNSDYTWEYEYYEIGPVSFEGLKAHKYSIVIGFWVGLAVFVIFMFFVLTLLTKTGAPHQDNAESSERRFRMNSFVSDFGKPLESDKVFSRQGNEESRSLFHCYINEVEHLDRVKVCHQTTAIDSDVHLQEASRSSGRPEEELARFMKFDIPNFVNTEQSSFGEDDLLISEAPVLLENKPVSQTSRIDLD
# Target: melanocortin receptor 4 (MC4R)-3xmNeonGreen, human (human, UniProt P32245 1-332, a fraction carries K63-linked polyubiquitin chains (smear above the main band))
# Experiment: cell-based or functional assay
# melanocortin receptor 4 (MC4R)-3xmNeonGreen, human, sequence (P32245 whole entry): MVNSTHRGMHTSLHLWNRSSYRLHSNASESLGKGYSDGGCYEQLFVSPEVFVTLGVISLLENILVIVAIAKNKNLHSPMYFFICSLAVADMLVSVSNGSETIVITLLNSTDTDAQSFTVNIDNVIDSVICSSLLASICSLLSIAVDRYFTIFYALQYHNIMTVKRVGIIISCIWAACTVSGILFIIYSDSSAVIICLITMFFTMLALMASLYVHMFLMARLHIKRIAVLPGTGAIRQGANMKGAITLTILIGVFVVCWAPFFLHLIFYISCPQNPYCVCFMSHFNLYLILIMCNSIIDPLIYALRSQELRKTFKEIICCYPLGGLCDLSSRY
binder,measurement,value
B1,"ciliary fluorescence of MRAP2^3FLAG in IMCD3-[MRAP2^3FLAG/MC4R^3NG] cells treated with 5 nM HS014, time course, against vehicle",11 fold
same,"ciliary fluorescence of MRAP2^3FLAG in IMCD3-[MRAP2^3FLAG/MC4R^3NG] cells treated with 50 nM AgRP, time course, against vehicle",25 fold
